Measured values reported in PMC6269477.

Legend:
[1] = biological target: PBP1A (untagged, purified) (E. coli) (UniProt P02918)
[2] = biological target: PBP1B (untagged, purified) (E. coli) (UniProt P02919)
PBP1B (untagged, purified) (E. coli), sequence (P02919 46-844 limits assumed): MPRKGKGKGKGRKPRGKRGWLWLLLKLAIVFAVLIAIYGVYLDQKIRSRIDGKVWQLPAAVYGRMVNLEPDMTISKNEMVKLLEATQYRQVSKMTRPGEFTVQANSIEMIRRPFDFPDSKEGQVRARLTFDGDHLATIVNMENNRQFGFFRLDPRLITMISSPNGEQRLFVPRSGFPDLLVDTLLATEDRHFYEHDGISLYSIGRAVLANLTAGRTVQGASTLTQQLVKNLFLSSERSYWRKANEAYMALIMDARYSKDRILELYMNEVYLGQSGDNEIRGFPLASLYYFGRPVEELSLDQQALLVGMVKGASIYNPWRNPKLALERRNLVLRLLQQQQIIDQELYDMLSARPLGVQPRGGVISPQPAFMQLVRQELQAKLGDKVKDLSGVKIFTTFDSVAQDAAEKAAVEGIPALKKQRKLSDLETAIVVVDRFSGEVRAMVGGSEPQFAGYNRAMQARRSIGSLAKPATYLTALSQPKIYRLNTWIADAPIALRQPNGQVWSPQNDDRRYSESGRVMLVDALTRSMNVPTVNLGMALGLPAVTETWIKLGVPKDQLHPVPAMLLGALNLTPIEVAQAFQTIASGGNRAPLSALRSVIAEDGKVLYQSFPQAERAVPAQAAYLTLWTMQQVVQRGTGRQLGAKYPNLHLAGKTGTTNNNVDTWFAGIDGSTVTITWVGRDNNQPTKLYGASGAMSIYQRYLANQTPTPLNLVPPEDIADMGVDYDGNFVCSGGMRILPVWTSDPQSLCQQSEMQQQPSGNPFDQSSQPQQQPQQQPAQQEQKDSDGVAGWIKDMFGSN

PBP1A (untagged, purified) (E. coli), sequence (P02918 whole entry): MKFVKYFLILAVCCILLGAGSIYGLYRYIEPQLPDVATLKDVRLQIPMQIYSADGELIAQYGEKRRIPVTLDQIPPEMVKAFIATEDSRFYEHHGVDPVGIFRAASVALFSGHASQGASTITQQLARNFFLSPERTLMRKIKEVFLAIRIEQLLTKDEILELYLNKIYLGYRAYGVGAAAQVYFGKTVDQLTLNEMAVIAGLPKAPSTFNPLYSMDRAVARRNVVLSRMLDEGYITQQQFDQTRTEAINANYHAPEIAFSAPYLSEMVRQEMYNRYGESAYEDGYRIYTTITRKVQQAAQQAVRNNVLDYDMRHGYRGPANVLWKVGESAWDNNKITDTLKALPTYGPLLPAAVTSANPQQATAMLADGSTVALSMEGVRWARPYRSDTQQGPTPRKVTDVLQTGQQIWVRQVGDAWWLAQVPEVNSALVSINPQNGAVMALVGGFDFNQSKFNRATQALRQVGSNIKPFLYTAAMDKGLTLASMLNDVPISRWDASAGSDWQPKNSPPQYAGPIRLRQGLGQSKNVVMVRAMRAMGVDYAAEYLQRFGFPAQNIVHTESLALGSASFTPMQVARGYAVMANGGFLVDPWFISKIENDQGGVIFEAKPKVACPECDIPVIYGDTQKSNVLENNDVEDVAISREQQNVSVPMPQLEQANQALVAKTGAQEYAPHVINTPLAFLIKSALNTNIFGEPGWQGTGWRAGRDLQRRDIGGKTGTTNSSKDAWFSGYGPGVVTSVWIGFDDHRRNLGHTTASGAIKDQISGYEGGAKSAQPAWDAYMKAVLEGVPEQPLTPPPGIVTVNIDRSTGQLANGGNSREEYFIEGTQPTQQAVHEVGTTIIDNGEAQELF

| GTase rate of PBP1A (consumption of dansylated lipid II), normalised to PBP1A alone, with ZipA [1] [fold] | GTase rate of PBP1A, normalised to PBP1A alone, with ZipA and FtsN together [1] [fold] | GTase rate of PBP1B (consumption of dansylated lipid II), normalised to PBP1B alone, with ZipA [2] [fold] | GTase rate of PBP1B, normalised to PBP1B alone, with ZipA and FtsN together [2] [fold] | GTase rate of PBP1A (consumption of dansylated lipid II), normalised to PBP1A alone, with FtsN [1] [fold] | GTase rate of PBP1B (consumption of dansylated lipid II), normalised to PBP1B alone, with FtsN [2] [fold] | Substance |
| --- | --- | --- | --- | --- | --- | --- |
| 2.6 | 3.4 | 1.4 | 3 | – | – | ZipA (untagged, oligohistidine tag removed by thrombin) (from UniProt P77173 1-328) (natural protein) |
| – | – | – | – | 1.3 | 2.6 | FtsN-His (from UniProt P29131 1-319) (natural protein) |
